According to IntAct's records for PubMed 36931259:

B1: 14-3-3 protein sigma (Homo sapiens), P31947 (parent)
chain: MERASLIQKAKLAEQAERYEDMAAFMKGAVEKGEELSCEERNLLSVAYKNVVGGQRAAWRVLSSIEQKSNEEGSEEKGPEVREYREKVETELQGVCDTVLGLLDSHLIKEAGDAESRVFYLKMKGDYYRYLAEVATGDDKKRIIDSARSAYQEAMDISKKEMPPTNPIRLGLALNFSVFHYEIANSPEEAISLAKTTFDEAMADLHTLSEDSYKDSTLIMQLLRDNLTLWTADNAGEEGGEAPQEPQS

Variants of: B1
Settings: with foxo1_human FOXO1, Q12778
Sequence of foxo1_human FOXO1, Q12778 (Q12778 whole entry): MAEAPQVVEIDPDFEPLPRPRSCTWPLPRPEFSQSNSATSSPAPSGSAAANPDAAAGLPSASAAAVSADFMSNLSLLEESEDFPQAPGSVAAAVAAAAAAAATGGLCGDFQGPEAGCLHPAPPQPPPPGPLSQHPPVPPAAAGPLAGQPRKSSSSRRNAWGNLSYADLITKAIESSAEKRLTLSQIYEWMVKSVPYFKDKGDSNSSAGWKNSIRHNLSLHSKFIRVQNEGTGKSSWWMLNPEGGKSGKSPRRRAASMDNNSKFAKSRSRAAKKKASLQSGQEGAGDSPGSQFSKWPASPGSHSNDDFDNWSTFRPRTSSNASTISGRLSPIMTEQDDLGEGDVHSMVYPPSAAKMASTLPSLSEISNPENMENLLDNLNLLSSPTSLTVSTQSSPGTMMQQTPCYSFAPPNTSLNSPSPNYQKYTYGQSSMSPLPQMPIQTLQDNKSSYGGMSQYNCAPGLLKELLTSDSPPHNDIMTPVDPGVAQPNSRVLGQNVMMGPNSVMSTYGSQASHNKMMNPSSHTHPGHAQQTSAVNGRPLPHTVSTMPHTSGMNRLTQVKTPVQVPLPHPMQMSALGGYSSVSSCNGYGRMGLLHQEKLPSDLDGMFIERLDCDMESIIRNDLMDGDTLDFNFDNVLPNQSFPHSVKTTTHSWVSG

| effect of a mutation on the interaction | Variant |
| --- | --- |
| decreasing interaction strength | MERASLIQKAKLAEQAERYEDMAAFMKGAVEKGEELSCEERNLLSVAYENVVGGQEAAWRVLSSIEQKSNEEGSEEKGPEVREYREKVETELQGVCDTVLGLLDSHLIKEAGDAESRVFYLKMKGDYYRYLAEVATGDDKKRIIDSARSAYQEAMDISKKEMPPTNPIRLGLALNFSDFHYEIANSPEEAISLAKTTFDEAMADLHTLSEDSYKDSTLIMQLLRDNLTLWTADNAGEEGGEAPQEPQS [K49E;R56E;V178D] |

Variants of: B1
Settings: with irs1_human IRS1, P35568
Sequence of irs1_human IRS1, P35568 (P35568 whole entry): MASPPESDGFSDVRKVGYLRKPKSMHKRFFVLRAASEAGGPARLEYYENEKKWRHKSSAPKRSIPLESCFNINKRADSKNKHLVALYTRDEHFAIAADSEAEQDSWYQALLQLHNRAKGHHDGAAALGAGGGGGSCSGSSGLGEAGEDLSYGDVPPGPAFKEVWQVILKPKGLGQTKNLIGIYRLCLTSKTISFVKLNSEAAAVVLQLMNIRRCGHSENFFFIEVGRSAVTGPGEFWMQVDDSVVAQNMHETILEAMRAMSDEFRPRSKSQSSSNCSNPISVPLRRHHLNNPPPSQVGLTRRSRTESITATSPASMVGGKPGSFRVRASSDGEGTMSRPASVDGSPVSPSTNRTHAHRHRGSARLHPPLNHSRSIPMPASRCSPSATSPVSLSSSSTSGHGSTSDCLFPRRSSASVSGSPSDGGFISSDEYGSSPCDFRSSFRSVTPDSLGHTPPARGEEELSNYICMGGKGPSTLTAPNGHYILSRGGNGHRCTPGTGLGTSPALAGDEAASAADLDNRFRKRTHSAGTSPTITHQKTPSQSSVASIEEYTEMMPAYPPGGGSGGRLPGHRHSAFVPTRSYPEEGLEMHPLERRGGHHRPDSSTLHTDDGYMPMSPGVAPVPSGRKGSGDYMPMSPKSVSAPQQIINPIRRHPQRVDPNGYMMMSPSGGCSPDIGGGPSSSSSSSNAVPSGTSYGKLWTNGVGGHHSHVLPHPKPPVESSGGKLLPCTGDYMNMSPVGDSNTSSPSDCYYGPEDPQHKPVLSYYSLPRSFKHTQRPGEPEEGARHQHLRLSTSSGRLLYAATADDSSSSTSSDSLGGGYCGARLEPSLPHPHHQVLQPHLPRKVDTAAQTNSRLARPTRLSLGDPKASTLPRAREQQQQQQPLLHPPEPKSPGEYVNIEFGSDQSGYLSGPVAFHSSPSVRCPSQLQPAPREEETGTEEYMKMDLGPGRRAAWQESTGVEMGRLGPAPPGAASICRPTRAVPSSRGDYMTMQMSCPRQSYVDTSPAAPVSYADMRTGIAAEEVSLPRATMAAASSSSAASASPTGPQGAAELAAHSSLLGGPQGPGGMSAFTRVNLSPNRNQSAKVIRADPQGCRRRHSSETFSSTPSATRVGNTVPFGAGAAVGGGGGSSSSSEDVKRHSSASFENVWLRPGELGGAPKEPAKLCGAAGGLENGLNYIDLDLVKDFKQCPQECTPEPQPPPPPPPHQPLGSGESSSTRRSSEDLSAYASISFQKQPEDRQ

| effect of a mutation on the interaction | Variant |
| --- | --- |
| decreasing interaction strength | MERASLIQKAKLAEQAERYEDMAAFMKGAVEKGEELSCEERNLLSVAYENVVGGQEAAWRVLSSIEQKSNEEGSEEKGPEVREYREKVETELQGVCDTVLGLLDSHLIKEAGDAESRVFYLKMKGDYYRYLAEVATGDDKKRIIDSARSAYQEAMDISKKEMPPTNPIRLGLALNFSDFHYEIANSPEEAISLAKTTFDEAMADLHTLSEDSYKDSTLIMQLLRDNLTLWTADNAGEEGGEAPQEPQS [K49E;R56E;V178D] |

Variants of: B1
Settings: with atat_human ATAT1, Q5SQI0
Sequence of atat_human ATAT1, Q5SQI0 (Q5SQI0 whole entry): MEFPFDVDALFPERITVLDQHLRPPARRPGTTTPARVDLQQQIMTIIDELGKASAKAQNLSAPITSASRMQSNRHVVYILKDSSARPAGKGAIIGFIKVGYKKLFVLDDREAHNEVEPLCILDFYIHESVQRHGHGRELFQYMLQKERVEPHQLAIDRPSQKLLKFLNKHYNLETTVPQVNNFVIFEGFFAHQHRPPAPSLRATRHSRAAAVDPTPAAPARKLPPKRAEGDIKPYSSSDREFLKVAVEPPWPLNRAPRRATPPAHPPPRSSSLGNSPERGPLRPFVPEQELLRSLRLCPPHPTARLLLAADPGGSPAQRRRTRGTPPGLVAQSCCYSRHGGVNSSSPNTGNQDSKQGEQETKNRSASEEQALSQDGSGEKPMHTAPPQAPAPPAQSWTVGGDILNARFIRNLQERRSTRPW

| effect of a mutation on the interaction | Variant |
| --- | --- |
| decreasing interaction strength | MERASLIQKAKLAEQAERYEDMAAFMKGAVEKGEELSCEERNLLSVAYENVVGGQEAAWRVLSSIEQKSNEEGSEEKGPEVREYREKVETELQGVCDTVLGLLDSHLIKEAGDAESRVFYLKMKGDYYRYLAEVATGDDKKRIIDSARSAYQEAMDISKKEMPPTNPIRLGLALNFSDFHYEIANSPEEAISLAKTTFDEAMADLHTLSEDSYKDSTLIMQLLRDNLTLWTADNAGEEGGEAPQEPQS [K49E;R56E;V178D] |

Variants of: B1
Settings: with 1433e_human YWHAE

| effect of a mutation on the interaction | Variant |
| --- | --- |
| decreasing interaction strength | MERASLIQKAKLAEQAERYEDMAAFMKGAVEKGEELSCEERNLLSVAYENVVGGQEAAWRVLSSIEQKSNEEGSEEKGPEVREYREKVETELQGVCDTVLGLLDSHLIKEAGDAESRVFYLKMKGDYYRYLAEVATGDDKKRIIDSARSAYQEAMDISKKEMPPTNPIRLGLALNFSDFHYEIANSPEEAISLAKTTFDEAMADLHTLSEDSYKDSTLIMQLLRDNLTLWTADNAGEEGGEAPQEPQS [K49E;R56E;V178D] |

Variants of: B1
Settings: with gsk3a_human GSK3A

| effect of a mutation on the interaction | Variant |
| --- | --- |
| decreasing interaction strength | MERASLIQKAKLAEQAERYEDMAAFMKGAVEKGEELSCEERNLLSVAYDNVVGGQDAAWRVLSSIEQKSNEEGSEEKGPEVREYREKVETELQGVCDTVLGLLDSHLIKEAGDAESRVFYLKMKGDYYRYLAEVATGDDKKRIIDSARSAYQEAMDISKKEMPPTNPIRLGLALNFSDFHYEIANSPEEAISLAKTTFDEAMADLHTLSEDSYKDSTLIMQLLRDNLTLWTADNAGEEGGEAPQEPQS [K49D;R56D;V178D] |
